Measured values as given in US20130058939A1.

Biological target: low-density lipoprotein (LDL) receptor-related protein (LRP) on bovine brain capillary endothelial cells of the in vitro BBB model (bovine)
Assay: cell-based or functional assay
Details: for alteplase (% of passage versus filter), spectrozyme assay, in vitro BBB model: scale: % of passage versus filter for alteplase alone

Chain of DSPA α2 (alpha 2) (P15638 37-477 limits assumed): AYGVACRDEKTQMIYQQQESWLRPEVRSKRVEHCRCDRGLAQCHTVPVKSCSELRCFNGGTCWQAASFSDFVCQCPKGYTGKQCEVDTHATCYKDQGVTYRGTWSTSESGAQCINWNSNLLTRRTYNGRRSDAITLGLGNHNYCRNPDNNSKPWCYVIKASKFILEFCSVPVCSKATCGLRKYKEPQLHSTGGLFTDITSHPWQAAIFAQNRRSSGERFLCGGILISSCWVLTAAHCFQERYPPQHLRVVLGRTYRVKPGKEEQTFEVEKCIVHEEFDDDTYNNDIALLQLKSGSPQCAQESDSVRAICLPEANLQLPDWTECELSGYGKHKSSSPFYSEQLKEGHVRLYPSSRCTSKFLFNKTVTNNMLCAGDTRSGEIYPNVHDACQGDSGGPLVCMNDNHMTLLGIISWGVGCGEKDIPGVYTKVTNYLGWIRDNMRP
Chain of DSPAα1 (Desmoteplase) (P98119 37-477 limits assumed): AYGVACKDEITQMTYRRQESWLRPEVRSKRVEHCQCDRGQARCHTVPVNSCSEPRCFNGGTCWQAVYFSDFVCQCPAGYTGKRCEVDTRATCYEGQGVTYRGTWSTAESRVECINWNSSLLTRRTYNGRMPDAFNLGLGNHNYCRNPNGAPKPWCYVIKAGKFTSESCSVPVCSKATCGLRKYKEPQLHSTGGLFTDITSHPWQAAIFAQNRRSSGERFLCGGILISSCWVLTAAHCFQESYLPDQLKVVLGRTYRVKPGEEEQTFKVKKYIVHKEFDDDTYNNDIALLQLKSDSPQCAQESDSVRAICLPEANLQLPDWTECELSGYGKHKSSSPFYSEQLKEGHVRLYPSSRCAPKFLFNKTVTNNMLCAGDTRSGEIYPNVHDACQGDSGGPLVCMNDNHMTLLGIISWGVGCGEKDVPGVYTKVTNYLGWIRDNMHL
Chain of clogged Desmoteplase (cDSPA), DSPA alpha 1 inactivated with D-phenyl-prolyl-arginine chloromethyl ketone (P98119 37-477 limits assumed): as above

DSPA α2 (alpha 2) (from UniProt P15638 37-477) (enzyme)
% of abluminal alteplase (zymography assay; alteplase alone = 100), in vitro BBB model (% of abluminal alteplase alone): 25.1 | alteplase (% of passage versus filter), spectrozyme assay, in vitro BBB model: 61.9

DSPAα1 (Desmoteplase) (from UniProt P98119 37-477) (enzyme)
% of abluminal alteplase (zymography assay; alteplase alone = 100), in vitro BBB model (% of abluminal alteplase alone): 46.6 | alteplase (% of passage versus filter), spectrozyme assay, in vitro BBB model: 67

Reteplase (Rapilysin) (enzyme)
% of abluminal alteplase (zymography assay; alteplase alone = 100), in vitro BBB model (% of abluminal alteplase alone): 51.6

clogged Desmoteplase (cDSPA), DSPA alpha 1 inactivated with D-phenyl-prolyl-arginine chloromethyl ketone (from UniProt P98119 37-477) (enzyme)
% of abluminal alteplase (zymography assay; alteplase alone = 100), in vitro BBB model (% of abluminal alteplase alone): 73.3 | alteplase (% of passage versus filter), spectrozyme assay, in vitro BBB model: 76.3
